According to paper PMC4979064, “Crystal structure of the plant receptor-like kinase TDR in complex with the TDIF peptide” (Nature Communications, 2016):
Square brackets hold non-standard residues; d marks the D form. Ends that are not written are not given here. Hyp = O=C(O)[C@@H]1C[C@@H](O)CN1; Ahx = NCCCCCC(=O)O

Key:
Settings in all cases: both partners purified
[1] = target: T1, lysine methylated C259A/C540S TDR mutant, extracellular domain (residues 31–631) (Arabidopsis thaliana, UniProt Q9FII5 31-631, C259A | C540S, lysine residues methylated; digested with Endo H (deglycosylated)); assay: crystal structure; TDR and TDIF mixed at a molar ratio of 1:1.5, vapour diffusion at 20 °C, 4 M sodium nitrate, 0.1 M sodium acetate pH 4.8, 200 mM ammonium sulfate; 3.0 Å, molecular replacement
T1 construct: TDR/PXY, Arabidopsis thaliana, extracellular LRR domain, residues 31-631, with C259A/C540S; also called lysine methylated C259A/C540S mutant; methylated TDR protein; not shown: 10xHis (after an HRV3C protease site), C-terminal, cleaved
T1 sequence (looked up): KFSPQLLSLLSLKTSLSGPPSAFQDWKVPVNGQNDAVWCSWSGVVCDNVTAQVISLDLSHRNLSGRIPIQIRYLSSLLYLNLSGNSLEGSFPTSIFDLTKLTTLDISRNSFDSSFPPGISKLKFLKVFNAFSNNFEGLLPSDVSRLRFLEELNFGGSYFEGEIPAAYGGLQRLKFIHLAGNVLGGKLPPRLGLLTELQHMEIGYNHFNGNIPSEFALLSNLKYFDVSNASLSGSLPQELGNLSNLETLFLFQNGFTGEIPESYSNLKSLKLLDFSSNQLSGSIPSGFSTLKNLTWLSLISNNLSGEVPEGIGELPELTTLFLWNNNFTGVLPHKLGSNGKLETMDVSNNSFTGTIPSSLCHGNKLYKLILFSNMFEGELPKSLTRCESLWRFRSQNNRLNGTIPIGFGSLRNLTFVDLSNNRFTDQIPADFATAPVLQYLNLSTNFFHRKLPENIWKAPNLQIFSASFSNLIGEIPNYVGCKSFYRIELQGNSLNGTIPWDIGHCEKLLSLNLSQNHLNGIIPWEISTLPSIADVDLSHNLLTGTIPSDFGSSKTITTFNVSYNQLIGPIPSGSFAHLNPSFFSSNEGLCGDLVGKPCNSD

[2] = target: T2, extracellular domain (residues 31–631) of TDR from A. thaliana, wild type (Arabidopsis thaliana, UniProt Q9FII5 31-631); assay: pull-down; biotinylated TDIF (2 ug) held on Dynabeads M-280 Streptavidin; purified TDR protein added with 0.1 mg/ml BSA, 4 °C, 2 h; wash buffer 20 mM Tris-HCl pH 7.5, 150 mM NaCl; bound protein eluted in SDS sample buffer, SDS-PAGE
T2 construct: TDR/PXY (TDIF receptor/phloem intercalated with xylem), LRR receptor-like kinase, Arabidopsis thaliana, extracellular LRR domain, residues 31-631; The purification told in the methods cleaves the His tag with HRV3C protease; also called wild-type TDR; TDIF receptor; source: Sf9 insect cells (baculovirus), secreted into the culture supernatant, purified
T2 sequence (looked up): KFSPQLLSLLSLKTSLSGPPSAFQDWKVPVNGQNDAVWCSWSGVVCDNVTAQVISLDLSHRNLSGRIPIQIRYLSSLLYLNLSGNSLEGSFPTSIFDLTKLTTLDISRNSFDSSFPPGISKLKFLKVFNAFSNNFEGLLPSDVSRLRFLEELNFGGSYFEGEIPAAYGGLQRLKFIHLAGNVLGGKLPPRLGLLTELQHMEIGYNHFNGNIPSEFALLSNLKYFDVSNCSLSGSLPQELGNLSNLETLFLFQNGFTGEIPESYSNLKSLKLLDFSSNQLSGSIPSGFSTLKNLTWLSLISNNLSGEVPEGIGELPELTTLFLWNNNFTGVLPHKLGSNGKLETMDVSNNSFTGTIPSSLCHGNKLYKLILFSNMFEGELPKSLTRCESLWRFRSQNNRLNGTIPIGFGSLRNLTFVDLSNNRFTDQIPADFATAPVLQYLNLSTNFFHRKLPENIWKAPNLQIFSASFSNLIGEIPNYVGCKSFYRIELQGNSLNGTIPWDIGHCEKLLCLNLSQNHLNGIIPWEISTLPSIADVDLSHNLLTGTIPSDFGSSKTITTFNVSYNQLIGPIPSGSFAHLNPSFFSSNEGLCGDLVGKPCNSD

[3] = target: T1, lysine methylated C259A/C540S TDR …; assay: as above
[4] = target: T3, C259A/C540S TDR mutant, extracellular domain (residues 31–631), as in the pull-down of Fig. 2e (Arabidopsis thaliana, UniProt Q9FII5 31-631, C259A | C540S); assay: as above
T3 construct: TDR/PXY, Arabidopsis thaliana, extracellular LRR domain, residues 31-631, with C259A/C540S; it may be the same preparation as m2; also called C259A/C540S mutant; TDR C259A/C540S mutant; source: Sf9 insect cells (baculovirus), purified
T3 sequence (looked up): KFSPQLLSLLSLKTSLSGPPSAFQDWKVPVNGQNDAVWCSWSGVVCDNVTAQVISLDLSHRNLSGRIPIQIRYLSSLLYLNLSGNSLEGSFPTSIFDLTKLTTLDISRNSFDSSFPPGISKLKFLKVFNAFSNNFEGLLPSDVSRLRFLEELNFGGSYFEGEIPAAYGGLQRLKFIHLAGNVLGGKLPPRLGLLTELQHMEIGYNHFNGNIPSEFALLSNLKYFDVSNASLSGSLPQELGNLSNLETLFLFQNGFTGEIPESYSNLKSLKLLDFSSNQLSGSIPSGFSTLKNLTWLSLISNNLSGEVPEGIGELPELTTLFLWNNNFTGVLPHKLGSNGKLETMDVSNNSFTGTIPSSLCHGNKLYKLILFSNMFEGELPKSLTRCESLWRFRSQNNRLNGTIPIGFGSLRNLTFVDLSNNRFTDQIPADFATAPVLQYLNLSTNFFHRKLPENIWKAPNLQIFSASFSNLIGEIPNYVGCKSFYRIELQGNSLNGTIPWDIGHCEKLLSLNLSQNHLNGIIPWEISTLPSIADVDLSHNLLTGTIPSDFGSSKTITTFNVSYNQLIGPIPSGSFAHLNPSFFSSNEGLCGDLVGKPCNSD

[5] = target: T4, TDR F161A mutant (in the C259A/C540S extracellular domain, residues 31–631) (Arabidopsis thaliana, UniProt Q9FII5 31-631, C259A | C540S | F161A); assay: as above
T4 construct: TDR/PXY, Arabidopsis thaliana, extracellular LRR domain, residues 31-631, C259A/C540S background with F161A; source: Sf9 insect cells (baculovirus), purified (Ni Sepharose excel)
T4 sequence (looked up): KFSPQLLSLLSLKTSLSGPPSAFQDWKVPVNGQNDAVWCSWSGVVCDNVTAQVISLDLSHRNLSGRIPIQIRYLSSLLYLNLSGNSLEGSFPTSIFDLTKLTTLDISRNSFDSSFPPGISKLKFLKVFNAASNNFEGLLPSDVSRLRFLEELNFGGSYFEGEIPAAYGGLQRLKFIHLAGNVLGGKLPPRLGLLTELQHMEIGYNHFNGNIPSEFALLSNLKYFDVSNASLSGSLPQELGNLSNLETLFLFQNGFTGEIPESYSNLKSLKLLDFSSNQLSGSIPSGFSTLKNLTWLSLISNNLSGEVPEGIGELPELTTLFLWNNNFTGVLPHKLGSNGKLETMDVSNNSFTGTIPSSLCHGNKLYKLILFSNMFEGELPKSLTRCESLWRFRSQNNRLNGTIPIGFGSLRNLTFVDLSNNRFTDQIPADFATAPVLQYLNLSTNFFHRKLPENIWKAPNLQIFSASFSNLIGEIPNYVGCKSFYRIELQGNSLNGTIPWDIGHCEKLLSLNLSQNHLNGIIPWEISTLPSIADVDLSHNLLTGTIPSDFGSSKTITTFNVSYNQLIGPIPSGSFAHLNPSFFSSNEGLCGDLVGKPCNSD

[6] = target: T5, TDR S162A mutant (in the C259A/C540S extracellular domain, residues 31–631) (Arabidopsis thaliana, UniProt Q9FII5 31-631, C259A | C540S | S162A); assay: as above
T5 construct: TDR/PXY, Arabidopsis thaliana, extracellular LRR domain, residues 31-631, C259A/C540S background with S162A; source: Sf9 insect cells (baculovirus), purified (Ni Sepharose excel)
T5 sequence (looked up): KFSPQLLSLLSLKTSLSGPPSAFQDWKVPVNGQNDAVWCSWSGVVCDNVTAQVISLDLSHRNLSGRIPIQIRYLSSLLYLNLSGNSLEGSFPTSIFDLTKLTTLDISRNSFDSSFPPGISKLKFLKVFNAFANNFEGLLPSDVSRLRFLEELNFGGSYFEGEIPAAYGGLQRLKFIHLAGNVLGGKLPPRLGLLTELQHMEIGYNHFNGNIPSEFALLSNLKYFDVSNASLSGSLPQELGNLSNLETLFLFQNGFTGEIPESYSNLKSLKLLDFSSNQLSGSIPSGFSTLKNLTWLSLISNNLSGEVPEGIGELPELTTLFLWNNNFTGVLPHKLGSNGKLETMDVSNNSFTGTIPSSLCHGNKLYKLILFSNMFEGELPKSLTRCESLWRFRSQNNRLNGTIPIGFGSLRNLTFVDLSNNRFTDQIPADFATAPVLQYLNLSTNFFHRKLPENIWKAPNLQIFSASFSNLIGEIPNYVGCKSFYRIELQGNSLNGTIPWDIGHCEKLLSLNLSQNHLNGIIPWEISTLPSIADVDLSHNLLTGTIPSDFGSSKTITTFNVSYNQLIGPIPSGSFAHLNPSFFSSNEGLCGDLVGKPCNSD

[7] = target: T6, TDR R421A mutant (in the C259A/C540S extracellular domain, residues 31–631) (Arabidopsis thaliana, UniProt Q9FII5 31-631, C259A | C540S | R421A); assay: as above
T6 construct: TDR/PXY, Arabidopsis thaliana, extracellular LRR domain, residues 31-631, C259A/C540S background with R421A; source: Sf9 insect cells (baculovirus), purified (Ni Sepharose excel)
T6 sequence (looked up): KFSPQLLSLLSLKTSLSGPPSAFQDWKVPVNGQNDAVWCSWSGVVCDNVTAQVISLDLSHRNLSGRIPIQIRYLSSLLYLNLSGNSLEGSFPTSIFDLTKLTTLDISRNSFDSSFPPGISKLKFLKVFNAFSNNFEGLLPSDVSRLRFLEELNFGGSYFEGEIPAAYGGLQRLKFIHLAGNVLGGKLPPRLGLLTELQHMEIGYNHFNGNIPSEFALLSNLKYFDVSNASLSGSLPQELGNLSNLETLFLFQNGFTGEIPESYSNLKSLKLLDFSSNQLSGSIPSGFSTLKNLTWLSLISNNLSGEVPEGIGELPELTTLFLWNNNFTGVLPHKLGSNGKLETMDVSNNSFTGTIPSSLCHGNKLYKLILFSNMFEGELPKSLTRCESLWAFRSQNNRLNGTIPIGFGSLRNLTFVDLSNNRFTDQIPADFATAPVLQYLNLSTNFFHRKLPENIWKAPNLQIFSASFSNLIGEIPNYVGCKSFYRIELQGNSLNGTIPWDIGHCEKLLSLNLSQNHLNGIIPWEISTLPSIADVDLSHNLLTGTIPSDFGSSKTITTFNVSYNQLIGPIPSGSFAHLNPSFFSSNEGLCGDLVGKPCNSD

[8] = target: T7, TDR R423A mutant (in the C259A/C540S extracellular domain, residues 31–631) (Arabidopsis thaliana, UniProt Q9FII5 31-631, C259A | C540S | R423A); assay: as above
T7 construct: TDR/PXY, Arabidopsis thaliana, extracellular LRR domain, residues 31-631, C259A/C540S background with R423A; source: Sf9 insect cells (baculovirus), purified (Ni Sepharose excel)
T7 sequence (looked up): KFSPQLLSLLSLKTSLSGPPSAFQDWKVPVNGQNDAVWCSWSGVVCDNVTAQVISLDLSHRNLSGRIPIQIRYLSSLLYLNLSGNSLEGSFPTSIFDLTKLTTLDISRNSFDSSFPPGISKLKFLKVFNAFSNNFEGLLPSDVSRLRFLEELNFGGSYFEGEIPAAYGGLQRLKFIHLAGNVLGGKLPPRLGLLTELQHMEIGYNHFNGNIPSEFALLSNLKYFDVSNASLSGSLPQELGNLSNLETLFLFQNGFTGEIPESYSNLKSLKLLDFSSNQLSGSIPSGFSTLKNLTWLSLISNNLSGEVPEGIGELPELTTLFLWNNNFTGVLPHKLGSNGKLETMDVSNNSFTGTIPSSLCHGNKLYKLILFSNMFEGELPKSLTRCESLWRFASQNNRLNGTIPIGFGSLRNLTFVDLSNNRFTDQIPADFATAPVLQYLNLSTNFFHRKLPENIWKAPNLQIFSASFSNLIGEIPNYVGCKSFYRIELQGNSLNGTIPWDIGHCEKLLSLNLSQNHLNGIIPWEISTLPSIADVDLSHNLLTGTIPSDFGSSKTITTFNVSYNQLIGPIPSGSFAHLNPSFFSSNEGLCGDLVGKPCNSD

Measured: binding result

B1: Tracheary element differentiation factor (TDIF) peptide, HEV(Hyp)SG(Hyp)NPISN (peptide)
peptide: HEV[Hyp]SG[Hyp]NPISN
notes: TDIF, 12-residue CLE family peptide with two hydroxyprolines (written P at 4 and 7), encoded by the CLE41 and CLE44 genes in Arabidopsis; the processed peptide from the C-terminus of the precursor; The same peptide is also encoded by CLE44; also called synthesized TDIF peptide; source: synthetic peptide (Eurofins Genomics)
binds: [1]

B2: biotinylated TDIF peptide, HEV(Hyp)SG(Hyp)NPISN-GSGS-(Ahx)-Biotin (peptide)
peptide: HEV[Hyp]SG[Hyp]NPISNGSGS-{Ahx-biotin}
notes: TDIF, 12-residue CLE family peptide with two hydroxyprolines (written P at 4 and 7), encoded by the CLE41 and CLE44 genes in Arabidopsis; linker before (Ahx)-Biotin; also called biotinylated TDIF peptides; source: synthetic peptide (Eurofins Genomics); not shown: Biotin, C-terminal, kept
not listed: [1]
binds: all other assays above
